Laboratory results as given in patent publication US20180038857A1.

Tests used:
Test in all cases: cell-based or functional assay
hCCR9 (human) = hCCR9 (human) (UniProt P51686)
hCXCR3 (human) = hCXCR3 (human) (UniProt P49682)
hCCR6 (human) = molecular target: T1, hCCR6 (human) (UniProt P51684)
T1 sequence (looked up): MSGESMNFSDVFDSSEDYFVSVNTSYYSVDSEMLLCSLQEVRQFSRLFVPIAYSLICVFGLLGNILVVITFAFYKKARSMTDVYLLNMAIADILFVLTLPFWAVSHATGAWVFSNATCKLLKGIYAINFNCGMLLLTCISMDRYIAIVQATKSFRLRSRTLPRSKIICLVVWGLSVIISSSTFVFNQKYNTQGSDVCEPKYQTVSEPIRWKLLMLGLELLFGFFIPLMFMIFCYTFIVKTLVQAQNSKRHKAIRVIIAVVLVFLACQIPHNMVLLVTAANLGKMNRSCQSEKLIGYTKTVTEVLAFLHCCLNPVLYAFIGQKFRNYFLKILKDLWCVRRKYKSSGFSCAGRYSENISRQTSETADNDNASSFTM

hCCR3 (human) = hCCR3 (human) (UniProt P51677)
Sequence of hCCR3 (human) (P51677 whole entry): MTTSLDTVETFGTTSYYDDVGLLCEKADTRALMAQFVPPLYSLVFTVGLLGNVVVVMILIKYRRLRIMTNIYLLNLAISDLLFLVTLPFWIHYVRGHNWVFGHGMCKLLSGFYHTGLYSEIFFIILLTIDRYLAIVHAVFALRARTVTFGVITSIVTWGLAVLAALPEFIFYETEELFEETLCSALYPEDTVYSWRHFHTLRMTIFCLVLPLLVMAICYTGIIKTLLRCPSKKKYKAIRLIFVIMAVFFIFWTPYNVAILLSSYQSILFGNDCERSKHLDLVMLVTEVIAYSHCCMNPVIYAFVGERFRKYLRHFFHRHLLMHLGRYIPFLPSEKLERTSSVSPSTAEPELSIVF

Sequence of hCCR9 (human) (P51686 whole entry): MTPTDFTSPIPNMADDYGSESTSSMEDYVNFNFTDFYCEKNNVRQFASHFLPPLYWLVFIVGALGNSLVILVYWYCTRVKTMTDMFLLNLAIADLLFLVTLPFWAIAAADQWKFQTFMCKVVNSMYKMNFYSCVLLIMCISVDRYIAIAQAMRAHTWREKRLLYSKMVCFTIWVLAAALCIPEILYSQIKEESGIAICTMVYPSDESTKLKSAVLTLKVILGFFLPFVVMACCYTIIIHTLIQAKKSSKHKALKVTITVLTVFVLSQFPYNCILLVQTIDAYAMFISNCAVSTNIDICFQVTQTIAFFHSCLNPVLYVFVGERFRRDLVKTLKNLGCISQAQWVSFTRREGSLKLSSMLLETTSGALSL
Sequence of hCXCR3 (human) (P49682 whole entry): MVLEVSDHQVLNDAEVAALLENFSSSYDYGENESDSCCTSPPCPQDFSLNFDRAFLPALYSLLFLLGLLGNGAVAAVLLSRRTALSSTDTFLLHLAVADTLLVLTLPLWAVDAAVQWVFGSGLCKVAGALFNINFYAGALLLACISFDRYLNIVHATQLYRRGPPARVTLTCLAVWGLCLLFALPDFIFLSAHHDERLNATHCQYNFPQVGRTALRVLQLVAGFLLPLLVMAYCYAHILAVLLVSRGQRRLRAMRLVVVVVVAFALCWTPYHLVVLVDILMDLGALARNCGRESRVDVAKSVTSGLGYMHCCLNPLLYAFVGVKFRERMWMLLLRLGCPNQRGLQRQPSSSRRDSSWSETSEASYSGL
Sequence of UniProt O15444 (O15444 other isoform, or with tags, fused parts or gaps limits assumed): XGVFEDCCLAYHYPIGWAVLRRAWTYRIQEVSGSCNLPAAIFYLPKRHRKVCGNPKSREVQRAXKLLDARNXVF
Sequence of recombinant native MIP-3α (P78556 27-96 limits assumed): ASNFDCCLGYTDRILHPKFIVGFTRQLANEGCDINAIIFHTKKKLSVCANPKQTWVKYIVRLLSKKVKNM

Substance “biotinTECK(Met to Nleu substitution) (CCL25): TECK derivatised at the ε-amino side chain functionality of Lys72 with PEG-Biotin (from UniProt O15444 25-97) (ligand)” has an EC50, agonist activity in an Aequorin assay (hCCR9 (human)) of 63.6 nM.

For “recombinant native IP-10 (from UniProt P02778 22-98) (ligand)”, the EC50, agonist activity in an Aequorin assay (hCXCR3 (human)) was 4.4 nM.

“recombinant native MIP-3α (from UniProt P78556 27-96) (ligand)” gave an EC50, agonist activity in an Aequorin assay (hCCR6 (human)) of 1 nM.

“recombinant native TECK (from UniProt O15444 24-150) (ligand)” was tested, and the EC50, agonist activity in an Aequorin assay (hCCR9 (human)) was 67.9 nM.

“recombinant native eotaxin (from UniProt P51671 24-97) (ligand)” gave an EC50, activity in an Aequorin assay (agonist) (hCCR3 (human)) of 10.7 nM.
